These results are taken from publication PMC12548473, “Solution structure of the C-terminal domain of the measles virus V protein in its free form and mechanistic analysis of STAT2 targeting” (Journal of Virology, 2025).

As a reminder, the Kd is the free concentration of one partner at which half of the binding sites on the other are occupied at equilibrium, for simple one-to-one binding. One may read the stoichiometry N as a count of units in the complex or per binding partner.

The target of assay [1] is STAT2 core (Homo sapiens) (UniProt P52630). The note with it: cited from earlier work.
Another assay addresses T1, STAT2-core (UniProt P52630 133-679).
T1 construct: source: purified
T1 sequence: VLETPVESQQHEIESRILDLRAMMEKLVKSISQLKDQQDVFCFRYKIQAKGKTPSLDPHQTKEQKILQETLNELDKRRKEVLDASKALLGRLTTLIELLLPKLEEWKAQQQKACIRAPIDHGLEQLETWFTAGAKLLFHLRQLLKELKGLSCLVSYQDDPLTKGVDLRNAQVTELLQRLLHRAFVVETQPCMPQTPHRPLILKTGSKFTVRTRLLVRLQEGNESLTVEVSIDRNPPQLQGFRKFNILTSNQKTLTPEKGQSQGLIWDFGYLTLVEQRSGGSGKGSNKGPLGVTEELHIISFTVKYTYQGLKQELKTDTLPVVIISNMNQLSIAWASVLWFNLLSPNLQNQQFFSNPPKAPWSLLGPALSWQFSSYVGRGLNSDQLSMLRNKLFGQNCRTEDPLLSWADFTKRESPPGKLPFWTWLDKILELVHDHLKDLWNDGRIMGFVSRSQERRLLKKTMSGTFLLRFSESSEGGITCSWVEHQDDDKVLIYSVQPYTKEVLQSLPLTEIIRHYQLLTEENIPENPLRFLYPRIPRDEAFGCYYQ
Description: ITC; 250 µM MeV-V_(CT221-299) injected (20 x 2.5 µL) into 35 µM STAT2-core; 20°C; 10 mM HEPES pH 7.4, 150 mM NaCl, 1 mM TCEP; 1:1 binding model; three independent experiments. The settings on record: both partners purified. On the technique in general: ITC needs no label: the signal is the heat of the interaction.

For MeV-V (from UniProt P0C774), the Kd in assay [1] was 180 nM.

B1: MeV-V_(CT221-299) (measles virus V protein, residues 221-299, containing the C-terminal domain) (domain or fragment)
chain: GPASTSETPIKKGHRREIGLIWNGDRVFIDRWCNPMCSKVTLGTIRARCTCGECPRVCEQCRTDTGVDTRIWYHNLPEIPE
notes: additional Gly and Pro before Ala221, left after HRV-3C protease digestion; 15N- or 13C,15N-labelled for the NMR experiments, unlabelled for ITC; Monomer by SEC; also called MeV-VCT construct; MeV-VCTD; source: E. coli BL21 star (DE3), purified (Glutathione Sepharose 4B, 3C protease elution, HisTrap, HIC, SEC); not shown: GST, N-terminal, cleaved
Regarding B1, in the assay with STAT2-core, binding was characterised by a dissociation constant (Kd) of 212 nM, the dH is -12.5 kcal/mol and the “stoichiometry N” value is 1.17.
